Results as given in patent US12280095B2, “Tissue modifier and uses therefor” (Fibrosoft Pte Ltd, priority 2021, dated 2025).

Test system: Dupuytren's disease
Experiment: Treatment of Dupuytren's disease patients by intralesional injection of tPA in combination with hyaluronidase
Format: in vivo, human

B1: ALTEPLASE: tissue plasminogen activator (tPA), collagenase-producing agent; comparator when administered on its own (protein, UniProt P00750 36-562, looked up)
Tissue-type plasminogen …: SYQVICRDEKTQMIYQQHQSWLRPVLRSNRVEYCWCNSGRAQCHSVPVKSCSEPRCFNGGTCQQALYFSDFVCQCPEGFAGKCCEIDTRATCYEDQGISYRGTWSTAESGAECTNWNSSALAQKPYSGRRPDAIRLGLGNHNYCRNPDRDSKPWCYVFKAGKYSSEFCSTPACSEGNSDCYFGNGSAYRGTHSLTESGASCLPWNSMILIGKVYTAQNPSAQALGLGKHNYCRNPDGDAKPWCHVLKNRRLTWEYCDVPSCSTCGLRQYSQPQFRIKGGLFADIASHPWQAAIFAKHRRSPGERFLCGGILISSCWILSAAHCFQERFPPHHLTVILGRTYRVVPGEEEQKFEVEKYIVHKEFDDDTYDNDIALLQLKSDSSRCAQESSVVRTVCLPPADLQLPDWTECELSGYGKHEALSPFYSERLKEAHVRLYPSSRCTSQHLLNRTVTDNMLCAGDTRSGGPQANLHDACQGDSGGPLVCLNDGRMTLVGIISWGLGCGQKDVPGVYTKVTNYLDWIRDNMRP
ALTEPLASE administered on its own, patients with Dupuytren's disease
  mean time required to observe discernible reduction in volume of the fibromatosis, reduction of contracture and improvement in the range of motion: 4-6 weeks
ALTEPLASE alone
  time required to obtain similar effects (volume reduction, flexion improvement): 4-6 weeks
